Results reported in patent US20250145977A1 (THERIPION, published 2025).
One block for each binder: values may come before it.

Target: T1, Human CD40 ligand (BioLegend) (human, UniProt P29965 113-261, limits assumed)
T1 construct: Coated on the ELISA plate at 2 ug/ml; also called CD154; gp39
T1 sequence (looked up): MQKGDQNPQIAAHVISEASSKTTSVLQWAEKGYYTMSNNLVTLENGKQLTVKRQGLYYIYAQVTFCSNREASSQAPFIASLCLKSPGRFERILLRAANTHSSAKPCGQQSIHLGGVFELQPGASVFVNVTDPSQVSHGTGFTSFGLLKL
Experiment: ELISA on plate-immobilized human CD40 ligand (2 ug/ml coat); serial dilutions of HEK293 transfection supernatant; detection with HRP goat anti-human IgG Fc; x axis is fold dilution, no concentration given

binding result: binds
B1: hVK3LP-[hCD40EC E64Y-K81T-P85Y]-(g4s)4-[SSShinge-P238S Fc]-NGS-[PON1 Q192K] (Fc fusion)
chain: EPPTACREKQYLINSQCCSLCQPGQKLVSDCTEFTETECLPCGYSEFLDTWNRETHCHQHTYCDYNLGLRVQQKGTSETDTICTCEEGWHCTSEACESCVLHRSCSPGFGVKQIATGVSDTICEPCPVGFFSNVSSAFEKCHPWTSCETKDLVVQQAGTNKTDVVCGPDLSGGGGSGGGGSGGGGSGGGGSTGLEPKSSDKTHTSPPSPAPELLGGSSVFLFPPKPKDTLMISRTPEVTCVVVDVSHEDPEVKFNWYVDGVEVHNAKTKPREEQYNSTYRVVSVLTVLHQDWLNGKEYKCKVSNKALPASIEKTISKAKGQPREPQVYTLPPSRDELTKNQVSLTCLVKGFYPSDIAVEWESNGQPENNYKTTPPVLDSDGSFFLYSKLTVDKSRWQQGNVFSCSVMHEALHNHYTQKSLSLSPGKVDGASSPVNVSSPSVQDILFRNHQSSYQTRLNALREVQPVELPNCNLVKGIETGSEDLEILPNGLAFISSGLKYPGIKSFNPNSPGKILLMDLNEEDPTVLELGITGSKFDVSSFNPHGISTFTDEDNAMYLLVVNHPDAKSTVELFKFQEEEKSLLHLKTIRHKLLPNLNDIVAVGPEHFYGTNDHYFLDPYLKSWEMYLGLAWSYVVYYSPSEVRVVAEGFDFANGINISPDGKYVYIAELLAHKIHVYEKHANWTLTPLKSLDFNTLVDNISVDPETGDLWVGCHPNGMKIFFYDSENPPASEVLRIQNILTEEPKVTQVYAENGTVLQGSTVASVYKGKLLIGTVFHKALYCEL
notes: Tested as unpurified HEK293 transfection supernatant; also called CD40TM-Fc-P1-K; CD40-Fc-PON1 fusion protein

binding result: binds
B2: [hCD40 EC]-(g4s)4-[SSShinge-P238S Fc] (wild-type CD40-Fc) (Fc fusion)
chain: EPPTACREKQYLINSQCCSLCQPGQKLVSDCTEFTETECLPCGESEFLDTWNRETHCHQHKYCDPNLGLRVQQKGTSETDTICTCEEGWHCTSEACESCVLHRSCSPGFGVKQIATGVSDTICEPCPVGFFSNVSSAFEKCHPWTSCETKDLVVQQAGTNKTDVVCGPDLSGGGGSGGGGSGGGGSGGGGSTGLEPKSSDKTHTSPPSPAPELLGGSSVFLFPPKPKDTLMISRTPEVTCVVVDVSHEDPEVKFNWYVDGVEVHNAKTKPREEQYNSTYRVVSVLTVLHQDWLNGKEYKCKVSNKALPASIEKTISKAKGQPREPQVYTLPPSRDELTKNQVSLTCLVKGFYPSDIAVEWESNGQPENNYKTTPPVLDSDGSFFLYSKLTVDKSRWQQGNVFSCSVMHEALHNHYTQKSLSLSPGK
notes: Tested as HEK293 transfection supernatant; also called CD40WT-Fc
